Test results published in PMC10330821.

Target: native bovine chromogranin B (bCHGB) (bovine)
Assay: SEC; bCHGB in detergents, re-extracted from vesicles and fractionated by gel filtration; elution position compared with recombinant mCHGB

stoichiometry N: 2
Substance: native bovine chromogranin B (bCHGB) (natural protein)
